experiment: soluble on expression in E. coli; label from the status in PepcDB or PDB records

Row | Sequence | soluble on expression in E. coli
1 | MGSDKIHHHHHHDSDIDPVYVLSGDSMELMGGPNEVILTPDNPQALALTVYWSGDGRLALSDTLLQAPVNVAEITIQFSKDEHFTAPLNIAVDKNIHSRQFLCEELNSLLDRLGYEANEKAPLWIRMRSALAANIAPEYSNVMEVLVQSYRIELVLAQVLDKDWKNTSMTLASPAEDGIYKGFMGVNGWENWWLREANNVMWGNLGEEGKTFYASSEDSHWNFWFPNPSGCYYTTVNTVEGWWSALHVASLSVSGDVTGEMAYNKQSNQWTLPVNLATQSTLTISVSGKGSLYNRETTDIGPAIEQTVAFGGNSQNLLFGESADNISVTMPAGENLLVLDLSNPLQFTIGIGEDVPQPEVSQYLYFSGITNWEGFDDYLTLYDEAGLCYGGAHWIDSEWGYRAYTEQAWEPAYNAADGSTDLSGTLILAESKDNIPAPAQGLYVMDFNMKSLTYELTQVQTVTFTGLNDNWSESPMTQSAENPEIFTAEFIKEKKSPWGVKVLINNNWNLFFGGGSGILHLKHSESSAGFDGDDELEIGKTYVLTVDLGHQTYSYSLK | not soluble
2 | MSLKIIPGATGYFNKTLNSNQFDNEDAIKGKVNSIYGKSIDYSTMRHRDIIIAKIDLFIQRITHNLWTAREKNVTLIKQINDLKMCVNEYIGDCTDEELNDREFIASVVDRAIFHFAINSICNPEDNKDATLIERCTFDVETKNGLPSTVQLFYEESKDNEPLANIHLQAIGSGFLTFVNACQEHDDNSLKLFASLLISLSYSSVYSDFAGRVNINEYNDNYLKAQFEELSQRDMKKYLGEMKRLADGGEMNFDGYLDKMSHLVNEGTLAPDILSKMRDAAPKLIDFAKSFDPNSKEKIKIYTGTSKLIYDLFGVKSEKEGHHHHHH | soluble
3 | MGSDKIHHHHHHMNSTITPTLNLKAQHAERRVVVTGASGYVGARLVVELLSTGFNVRATSRSLSSLKRFPWYDQVEAVEADLSISEDVNRLFEDVDTVFYLVHSMSGTQNFEELESKIASKVAQAAHSNGVRQIIYLSGLHPRTELDKLSPHMRSRENVARILGSTAVPAITFRAATLIGSGSASFEMIRHLTERLPIMVAPQWINNKIEPISIRDTLYYLVKAADLPEPINEEFDIGSGHIYTFADLLRIYGKIRGLRRTIVSLPIPLPLDTLSGLWIAAITPAPLSLAQPLAQSMQEDAICSNRSIRDYISDPPSGLADYPTSVRRALQQESMGVLSSWDSSWKNLSSTDHLPSDPEWTGRTVYSDVQEQSFRSEPAKVWRVIEGIGGHHGWYSTPLLWFVRGVIDKAIGGPGLGGRRDPNRLRVGDRVDFWRVEEVTPEKQLTLRAEMRASGQAWLQFTINGNTLRQRAVYFPKGLLGRVYWLALIPFHAVIFPTMLRNIIQAGDN | not soluble
4 | MGSDKIHHHHHHMSSEAIFEHGYENIDLVREYDARYAGEDVHYETFARLANFFGRDMRPHWHDRYFQLHYLVTGRITLQLDEHFYSVRAPLFVLTPPSVPHTFFTNPDSDGHVLTVRQELIWPLVEKLWPGSGDAAMLQGICLSLEGMEHTLAALNHYWPIISLEFQQNKQGREILLQSLAQSIFTILLREAPPNDISTCSVRGEMCLFQKFNRLIDENYRQHLMVPEYATMLGMSESRLTELCRRFANQSPKRLIFERVSREARRLLLYSEQSINQIALDLGYKDPAYFARFFNRMMGCSPTQFRGR | not soluble
5 | TTNKPIVLSTWNFGLHANVEAWKVLSKGGKALDAVEKGVRLVEDDPTERSVGYGGRPDRDGRVTLDACIMDENYNIGSVACMEHIKNPISVARAVMEKTPHVMLVGDGALEFALSQGFKKENLLTAESEKEWKEWLKTSQYKPIVNIENHDCIGMIALDAQGNLSGACTTSGMAYKMHGRVGDSPIIGAGLFVDNEIGAATATGHGEEVIRTVGTHLVVELMNQGRTPQQACKEAVERIVKIVNRRGKNLKDIQVGFIALNKKGEYGAYCIQDGFNFAVHDQKGNRLETPGFALK | soluble
6 | MKNSLRIPRIIHQTWKTKDVPSPLDQLPQTWKEYLPNWEYILWTDEMNREFVCKHFPDFLEKYDTYPCNIQRADAIRYLLLKVYGGLYVDMDFECLENIEFLLEGSDFIVGKEPDWHAKRFGFEYIICNAFMASTPDNDFINFVCQRLINHSGGKVVNNGFDILDSTGPFLLTHAFNAFPHKEDIRILESKTIYPIGQWEVEKIKNNQIPKEMEERINQAHAIHYFFGTWFGKLEHHHHHH | not soluble
7 | MRGSHHHHHHGSPPAAPITLWTGPGPSINGFINDTPVIRCFICLTRDSNLVTVNASFVGEGGYRIVSPTQSQFSLIMEFDQFGQLMSTGNINSTTTWGEKPWGNNTVQPRPSHTWKLCMPNREVYSTPAATISRCGLDSIAVDGAPSRSIDCMLIINKPKGVATYTLTFRFLNFNRLSGGTLFKTDVLTFTYVGENQ | soluble
8 | GMPELAVQKVVVHPLVLLSVVDHFNRIGKVGNQKRVVGVLLGSWQKKVLDVSNSFAVPFDEDDKDDSVWFLDHDYLENMYGMFKKVNARERIVGWYHTGPKLHKNDIAINELMKRYCPNSVLVIIDVKPKDLGLPTEAYISVEEVHDDGTPTSKTFEHVTSEIGAEEAEEVGVEHLLRDIKDTTVGT | soluble
9 | MHHHHHHMKHNQLPLVIEFTEQTAPKIFGGEIKTHILLFLPKSVSDYDGKLSNFKTAAESFKGKILFAFIDSDHTDNQRILEFFGLKKEECPAVRLITLEEEMTKYKPESEELTAERITEFCHRFLEGKIKPHLMSQELPEDWDKQP | soluble
10 | MSVFMDLNIINSSDKNRLKHIIETAAHLGYSTVAINYVVEPLQKKQEIPNPQSISDLFDKFPVVQGKSSPIKVLNRLTIVASDASHFRPTNEYKKFDLVAVYPKTEKLFHAACMTFDVDIICIAVTEKQPFHFKRAPVNGAIDRGIFFETCYAAAIRDSITRRYTIANAICLMEICKGKNVIVSSGAERQLELRGPYDIANLGLVFSLSEGDAKAAVSTNCRSVLLHGETRATASGVIHTMKKPQILQKEEEETPAAKKARTELA | soluble
11 | MRSIPLCQLLLLLTILSIDARPSDHFLSFSKTELCAAEPHLKVCQPNSRAQSSKIINGDGLTAERLEQLSKHSNKGFIEEEANSGRSSAASNVDDPFEDVATRAPPSSNEYEEERYSHRKHKHHHRKSHRGHHYGSPYQQYYQQQQHHDPLTYRVYPGLHPKDGRYCSDMKGMFAYTCAPSKPLRIDLVEFCKDYAAFCNVPNFHRLPGPRMGPPLTDKGVGHVDVNGHFGFGVGAVPGLEVGVGWGVDVGPIPGMGESVGVGVGLDLGIMGSKTPEAFRRGQDDPNAKGGGIVGINGGVGVKAPGTGDGVGVGTGLGVGK | not soluble
12 | MGSDKIHHHHHHMRKLKKYKPTAFIADGSYYDEDAADYAVAFIEALSHTKGLWAGKPFELIDWQEQIIRDLFGILKPDGYRQFNTAYVEIPKKMGKSELAAAIALLLTCGDGEERAEVYGCAADRQQASIVFEVAADMVRMCPALNKRVKLLASTKRLVYLPTNSFYQVLSAEAYSKHGFNIHGVVFDELHTQPNRKLFDVMTKGSGDARTQPLYFLITTAGTDTQSICYETHQKAVDIIEGRKYDPTFYPVIYGAKEEDDWTDPKVWKKANPSLGITVGIDKVRAACESAKQNPAEENSFRQLRLNQWVKQSVRWMPMAKWDACAFPVIPESLEGRVCYGGLDLSSTTDITAFVLVFPPEDETDKYIVLPYFWMPEDNIDLRVRRDHVQYDLWEKQGYILTTEGNVVHYGYIERFIEELGEKYNIREIAFDRWGAVQMVQNLEGAGFTVVPFGQGFKDMSPPTKELMKLTLEERIAHGGHPVLRWMMDNIFIKTDPAGNVKPDKEKSTEKIDGAVATIMALDRAIRCGSGNSGDSVYDERGLIVF | not soluble
13 | MQRSLFSKFRQILTYKCDWYGKELILADKTYPSTQRCAKCGYVKTGDEKITLQGNQKHGTKHNEYICYKCDYSNDRDENAVLNLLALARLEHHHHHH | not soluble
14 | MGSDKIHHHHHHMKFFNREKEIHKILSIIEGEPNLIYFIYGSINSGKTALINEIINNRLDKNKYIVFYFDLREIFISKYDDFIEVLFEEYEGDKSPIEVIKAIINDLPSLYGIPIPKNTLNEIFKKKTTKNVFRYITNVLMDIKREGKQPIIIIDELQKIGDMKINGFLIYELFNYFVSLTKHKHLCHVFCLSSDSLFIERVYNEAMLEDRVDYILVDDHRGGYAPSIGILPQIESGVAFGNPALEYSNRGFASMRGEYILVDDFDKETALKFMDFLAKENNMSLTNEDKELIYNYVGGKPVLIIKVIDKLRYENLNDILDFMLKDATQKLKYFLEDVKEEDEELYKKVVDALKLFKEDYEIEDIKIPKKIREFLIKRNILFLNPIEGILKPQSFLVWNAIKKVL | not soluble
15 | SEEITDGVNNMNLATDSQKKNRIQVSNTKKPLFFYVNLAKRYMQQYNDVELSALGMAIATVVTVTEILKNNGFAVEKKIMTSIVDIKDDARGRPVQKAKIEITLVKSEKFDELMAAANEEKEDAETQVQN | soluble
16 | MSLTSTATDSPLKYYDIGLNLTDPMFHGIYNGKQYHPADYVKLLERAAQRHVKNALVTGSSIAESQSAIELVSSVKDLSPLKLYHTIGVHPCCVNEFADASQGDKASASIDNPSMDEAYNESLYAKVISNPSFAQGKLKELYDLMNQQAKPHDTSFRSIGEIGLDYDRFHYSSKEMQKVFFEEQLKISCLNDKLSSYPLFLHMRSACDDFVQILERFVVGFTDEKDTFQLQKLGASSSSGFYKFHPDRKLVVHSFTGSAIDLQKLLNLSPNIFIGVNGCSLRTEENLAVVKQIPTERLLLETDAPWCEIKRTHASFQYLAKYQEVRDFEYPAFKSVKKNKLADKLNAEELYMVKGRNEPCNMEQVAIVVSEVKDVDLATLIDTTWKTTCKIFGEGHHHHHH | soluble
17 | MSLSDRVKKIESFTLTLPRETPYLGKPRPGEEPNGRGYLVRKANRTVYPTFDRSVLVRIETENGAVGWGETYGLVAPRATMEIIDDLLADFTIGRDPFDAAAIHDDLYDLMRVRGYTGGFYVDALAAIDIALWDLAGKLAGLPVCKLLGGQRRDRIAAYISGLPEDTRAKRAELAAAWQAKGFSSFKFASPVADDGVAKEMEILRERLGPAVRIACDMHWAHTASEAVALIKAMEPHGLWFAEAPVRTEDIDGLARVAASVSTAIAVGEEWRTVHDMVPRVARRALAIVQPEMGHKGITQFMRIGAYAHVHHIKVIPHATIGAGIFLAASLQASAALANVDCHEFQHSIFEPNRRLLVGDMDCLNGEYVVPTGPGLGVEPSKEAQGLLKKHEGHHHHHH | soluble
18 | MGSDKIHHHHHHMDIPHQRLVYFQVTIEAGSVRQAAARLDIAPSAVSRQLSLIEEALGAPLLERSRQGVVPTPVGEMLLDYCRKRAALDDRFSETLDAYQRLETGHLSLTVGEGFVGDLLDTPLRTFTERYRGVRLDVNTGSTSDIIEAVVEDEAHIGLMYHERLHPQLRFWHSSRQPLVALMSPSHPLAAVENELPLATLSEHPMALWRTGHGVRQLVDEGFREAGLGQHVTMQTNSLSVLLHAARSELTLTLLPAFAAARELEDGALVARAVDCERFRQAHAHIITRVGRRMPKAGLQLLRHLERWMRAFKSRLVSG | not soluble
19 | MNITDLKPTKVWKFFHEITQVPRPSKKEEKILAYLVKFAEDRNLKYRTDEVGNLVIEKPATPGYEHLETVILQSHMDMVCEKNADKVHDFENDPIRTIIDGEWLHADGTTLGADNGIGCAAELAILDSDDIEHGPIECLFTMDEETGMTGAMNLKPGFFNGKILLNLDSEDEGELFIGCAGGMGTMVEFAYEKREATDDYLYFEVKVSGLKGGHSGGEIHIGLGNANKILTRYLYALEHELDWKLCSFQGGNLHNAIPREAHAVIGLKADQKERARVILNELAAAVEDELKRVDPGVKLEMKSVGKPAYRIDCDTKRRLVRALYACPHGVYGMSHDIEGLVETSSNLASVKMKEDDKIYVETSQRSSTSSLISDIANTVASVFELADAKISFRDPYPGWKPNPDSPILKAASESYERIFGRKPAIKAIHAGLECGLFLDKYPYLDMVSFGPTLRDVHSPVEKIEIKTVQLWWDHLVDILKHIPAAK | not soluble

Source: the DeepSol protein solubility set
